Reference: patent US20200079850A1

Experiments:
[1] = target: cynomolgus LAG3 expressed on the cell surface (293T or CHO cells) (cynomolgus monkey); experiment: flow cytometry, 293T cells expressing cyno LAG3
[2] = target: cynomolgus LAG3-Fc (accession # NC 022282.1) (cynomolgus monkey); experiment: SPR (Biacore), antibody captured by anti-Flag, cyno LAG3-Fc as analyte, 25 C
Sequence of cynomolgus LAG3-Fc (accession # NC 022282.1) (cynomolgus monkey) (P18627 other isoform, or with tags, fused parts or gaps limits assumed, form in doubt): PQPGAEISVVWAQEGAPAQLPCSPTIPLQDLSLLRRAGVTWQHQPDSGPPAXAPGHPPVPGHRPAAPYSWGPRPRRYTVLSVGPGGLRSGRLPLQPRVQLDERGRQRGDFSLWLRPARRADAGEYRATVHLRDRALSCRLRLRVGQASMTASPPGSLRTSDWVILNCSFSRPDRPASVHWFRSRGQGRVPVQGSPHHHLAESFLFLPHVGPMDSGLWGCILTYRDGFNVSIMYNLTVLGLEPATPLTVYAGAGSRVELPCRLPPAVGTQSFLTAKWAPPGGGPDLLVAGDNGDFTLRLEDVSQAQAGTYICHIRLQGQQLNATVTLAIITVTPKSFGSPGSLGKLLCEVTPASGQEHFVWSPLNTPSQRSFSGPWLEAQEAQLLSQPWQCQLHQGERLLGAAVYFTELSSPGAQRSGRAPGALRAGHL

Sequence of cynomolgus LAG3 expressed on the cell surface (293T or CHO cells) (cynomolgus monkey) (P18627 other isoform, or with tags, fused parts or gaps limits assumed, form in doubt): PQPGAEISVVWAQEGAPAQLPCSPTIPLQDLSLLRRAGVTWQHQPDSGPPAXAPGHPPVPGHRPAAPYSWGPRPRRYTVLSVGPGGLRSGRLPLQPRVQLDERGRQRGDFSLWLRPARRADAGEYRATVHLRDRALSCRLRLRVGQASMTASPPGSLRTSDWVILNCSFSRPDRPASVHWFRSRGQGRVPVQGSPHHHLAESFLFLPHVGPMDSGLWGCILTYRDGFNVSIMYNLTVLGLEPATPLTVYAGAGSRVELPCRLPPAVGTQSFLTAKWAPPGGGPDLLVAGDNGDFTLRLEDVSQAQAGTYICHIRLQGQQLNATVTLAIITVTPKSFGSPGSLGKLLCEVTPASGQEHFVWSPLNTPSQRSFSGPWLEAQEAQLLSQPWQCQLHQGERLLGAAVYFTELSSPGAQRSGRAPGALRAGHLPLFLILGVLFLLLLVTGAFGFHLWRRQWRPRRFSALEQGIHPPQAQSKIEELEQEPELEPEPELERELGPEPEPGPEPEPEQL

Kd [1]: 4.5 nM
Kd [2]: 4.51 nM
koff [2]: 0.000641 s⁻¹
B1: 421.61.4.5G11 (antibody, V domains shown)
VH: EVQLQQSGAELVRSGASVKLSCTASGFNIKDYYMHWVKQRPEQGLEWIAWIDPENGDTEYAPKFQGRATLTADTSSNTAYLHLSSLTSEDTAVYYCNAPDALDYWGQGTSVTVSS
VL: not shown
